From patent publication US20210230263A1 (BIOATLA, published 2021)
Changes are numbered by the printed parent chain.

B1: hum10 (antibody, V domains shown)
VH: QVQLVQSGAEVKKPGASVKVSCKASGYIFTSYWIHWIRQPPGKGLEWIGRIYPGTGNTYYNEKFKGRVTISADKSISTAYLQWSSLKASDTAMYYCARSYDSSCAYWGQGTLVTVSS
VL: AIQLTQSPSSLSASVGDRVTITCSASSSVSYMHWYLQKPGQSPQLLIYETSKLASGVPSRFSGSGSGTDFTFTISSLEAEDAATYYCQQWSSNPYITFGQGTKVEIKR
notes: Humanized monoclonal antibody derived from murine 3C3; also called parent antibody hum10; humanized 3C3
B2: CPS-02 (antibody, V domains shown)
VH: B1 VH with T30R, N57R, C104V
VL: B1 VL with E49K, S51R
notes: Mutant of humanized hum10, whole antibody expressed in CHO cells; also called CPS-hit-02; CSP02
B3: CPS-09 (antibody, V domains shown)
VH: B1 VH with T30R, N57R, S102Y, C104V
VL: B1 VL with S51R
notes: Mutant of humanized hum10, whole antibody expressed in CHO cells; also called CPS-hit-09; CSP09

Columns and labels:
human IL-22 [1] = molecular target: T1, human IL-22 (human, UniProt Q9GZX6 34-179); test: affinity ELISA on hIL22, mAb concentration at 50% max signal
T1 construct: also called hIL-22; hIL22
T1 sequence (looked up): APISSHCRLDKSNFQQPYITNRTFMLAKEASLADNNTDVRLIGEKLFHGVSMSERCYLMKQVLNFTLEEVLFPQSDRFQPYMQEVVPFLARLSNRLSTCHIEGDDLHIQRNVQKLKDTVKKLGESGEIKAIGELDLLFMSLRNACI

human IL-22 [2] = molecular target: T1, human IL-22; test: cell-based or functional assay
human IL26 = molecular target: T2, human IL26 (human, UniProt Q9NPH9 22-171, limits assumed); test: ELISA on coated antigen (1 ug/ml), anti-hIgG-HRP, OD450;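 note: specificity check of antibodies applied at 100 ng/ml to wells bearing human or mouse IL-22, related cytokines or an unrelated control antigen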
T2 sequence (looked up): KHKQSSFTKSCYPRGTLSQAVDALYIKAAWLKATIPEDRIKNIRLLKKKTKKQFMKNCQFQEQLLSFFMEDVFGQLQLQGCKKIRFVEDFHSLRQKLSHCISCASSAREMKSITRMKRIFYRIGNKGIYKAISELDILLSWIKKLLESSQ
Experimental: (§1) Plates were coated with 100 μl antigens at a concentration of 1 μg/ml. The plates were exposed to the antibodies at a concentration of 100 ng/ml. The bound antibodies were detected with anti-hIgG-HRP by the ELISA assay.

human IL19 = molecular target: T3, human IL19 (human, UniProt Q9UHD0 25-177); test: as above
T3 sequence (looked up): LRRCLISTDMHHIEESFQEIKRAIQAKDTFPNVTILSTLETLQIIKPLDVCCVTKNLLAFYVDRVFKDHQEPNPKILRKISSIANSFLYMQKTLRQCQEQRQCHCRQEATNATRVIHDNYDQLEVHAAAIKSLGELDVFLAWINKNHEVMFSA
Experimental: as §1

mouse IL-22 [3] = molecular target: T4, mouse IL-22 (mouse, UniProt Q9JJY9 34-179); test: as above
T4 construct: also called mIL-22; mIL22
T4 sequence (looked up): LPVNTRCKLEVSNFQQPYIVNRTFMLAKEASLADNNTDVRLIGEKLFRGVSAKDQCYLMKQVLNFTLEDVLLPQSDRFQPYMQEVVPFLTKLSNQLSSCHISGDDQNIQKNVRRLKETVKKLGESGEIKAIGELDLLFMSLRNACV
Experimental: as §1

human IL20 = molecular target: T5, human IL20 (human, UniProt Q9NYY1 25-176); test: as above
T5 sequence (looked up): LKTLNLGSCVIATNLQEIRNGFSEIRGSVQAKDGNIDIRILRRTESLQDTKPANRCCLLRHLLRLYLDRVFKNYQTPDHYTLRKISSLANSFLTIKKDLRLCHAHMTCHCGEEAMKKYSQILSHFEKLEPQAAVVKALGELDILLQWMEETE
Experimental: as §1

INF-γ = molecular target: T6, INF-γ (Homo sapiens (Human), UniProt P01579 24-161); test: as above
T6 sequence: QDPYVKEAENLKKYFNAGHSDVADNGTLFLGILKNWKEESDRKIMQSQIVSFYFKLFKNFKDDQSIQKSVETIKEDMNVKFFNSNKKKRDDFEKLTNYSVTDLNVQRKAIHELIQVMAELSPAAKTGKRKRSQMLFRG
Experimental: as §1

INF-λ1 = INF-λ1 (Homo sapiens (Human), UniProt Q8IU54 20-200); test: as above
Chain of INF-λ1 (Q8IU54 20-200 limits assumed): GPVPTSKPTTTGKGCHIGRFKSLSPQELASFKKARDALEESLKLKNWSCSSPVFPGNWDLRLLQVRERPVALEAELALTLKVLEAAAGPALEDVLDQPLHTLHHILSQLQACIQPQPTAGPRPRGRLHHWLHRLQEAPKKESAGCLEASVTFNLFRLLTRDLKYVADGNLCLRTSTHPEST
Experimental: as §1

human IL24 = molecular target: T7, human IL24 (human, UniProt Q13007 52-206, limits assumed); test: as above
T7 sequence (looked up): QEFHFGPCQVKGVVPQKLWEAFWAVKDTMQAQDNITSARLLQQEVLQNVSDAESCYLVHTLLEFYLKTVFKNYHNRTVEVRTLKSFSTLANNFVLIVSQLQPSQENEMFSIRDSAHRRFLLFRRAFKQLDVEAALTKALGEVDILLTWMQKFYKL
Experimental: as §1

human IL-22 [4] = molecular target: T1, human IL-22; test: SPR (SierraSensors SPR-2), hIL-22 immobilized on chip, antibody injected, Langmuir 1:1 model
Experimental: (§2) The affinity of the 10 antibodies of Table 1 was measured by Surface Plasma Resonance (SPR) using a capture assay on a SPR-2 instrument (SierraSensiors, Hamburg, Germany). The antigens hIL-22 and mIL-22 were immobilized on chips. The running buffer for the assay contained 10 mM HEPES with a pH of 7.4, 500 mM NaCl, and 0.05% TWEEN® 20. […] The off-rate was measured for 6 minutes. Binding constants were calculated using the curve fitting software Analyzer2 (Sierra Sensors). Sensorgrams were analyzed with the instrument specific software and with BIAevaluation 4.1 software. The binding data were analyzed using the Langmuir 1:1 model (human IL-22) or a model for a heterogeneous ligand (mouse IL-220).

[5] = molecular target: IL-22 (CXCL1 assay in HT29 cells); test: cell-based or functional assay
human IL-22 [6] = molecular target: T1, human IL-22; test: affinity ELISA on hIL22, mAb concentration at 50% max signal (second row of the same name)
[7] = molecular target: IL-22 (CXCL1 assay in HT29 cells); test: cell-based or functional assay; remark: listed apart in the source
mouse IL-22 [8] = molecular target: T4, mouse IL-22; test: cell-based or functional assay
mouse IL-22 [9] = molecular target: T4, mouse IL-22; test: SPR (SierraSensors SPR-2), mIL-22 immobilized on chip, antibody injected, heterogeneous ligand model
Experimental: as §2

mouse IL-22 [10] = molecular target: T4, mouse IL-22; test: affinity ELISA on mIL22, mAb concentration at 50% max signal
mouse IL-22 [11] = molecular target: T4, mouse IL-22; test: affinity ELISA on mIL22, mAb concentration at 50% max signal (second row of the same name)

Binder	EC50 (human IL-22 [1])	STAT3 Phosphorylation; hIL22 % inhibition mAb [0.73 nM] (human IL-22 [2])	binding result (human IL26)	binding result (human IL19)	binding result (human IL20)	binding result (INF-γ)	binding result (INF-λ1)	binding result (human IL24)	Kd (human IL-22 [4])	koff (human IL-22 [4])	IC50 (parameter C of the log-logit fit y=(A-D)/(1+(x/C)^B)+D) of inhibition of IL-22-induced CXCL1 production in HT29 cells [5]	EC50 (human IL-22 [6])	CXCL-1 Assay (IC50 [pM]) double data points 02122015 [7]	CXCL-1 Assay (IC50 [pM]) single data points 02052015 [7]	Acute Phase response 5 µg mIL22 and 5 µg mAb (% signal reduction), molar ratio mIL22: mAb = 4.5:1 (serum amyloid in mice) (mouse IL-22 [8])	Kd (mouse IL-22 [9])	koff (mouse IL-22 [9])	EC50 (mouse IL-22 [10])	EC50 (mouse IL-22 [11])	further results
B1	2.22 nM	7%	no binding (tested: 100 ng/ml)	no binding (tested: 100 ng/ml)	no binding (tested: 100 ng/ml)	no binding (tested: 100 ng/ml)	no binding (tested: 100 ng/ml)	no binding (tested: 100 ng/ml)	–	–	–	–	–	–	–	–	–	–	–	binding result (mouse IL-22 [3]): no binding (tested: 100 ng/ml)
B2	0.027 nM	33.8%	no binding (tested: 100 ng/ml)	no binding (tested: 100 ng/ml)	no binding (tested: 100 ng/ml)	no binding (tested: 100 ng/ml)	no binding (tested: 100 ng/ml)	no binding (tested: 100 ng/ml)	0.025 nM	4.67e-05 s⁻¹	29.5 ng/ml	0.054 nM	131 pM	197 pM	81%	3.28 nM	0.000545 s⁻¹	0.042 nM	0.019 nM	–
B3	0.081 nM	12.1%	–	–	–	–	–	–	0.0253 nM	2.18e-05 s⁻¹	61.6 ng/ml	0.074 nM	204 pM	411 pM	73%	3.96 nM	0.000768 s⁻¹	0.141 nM	0.034 nM	Acute Phase response 5 µg mIL22 and 50 µg mAb (% signal reduction), molar ratio of mIL22:mAb = 1:2.2 (serum amyloid in mice) (mouse IL-22 [8]): 42%
